Source: patent US10058586B2, “Use of human small leucine zipper protein in adipocyte differentiation procedure” (Korea University Research and Business Foundation, priority 2013, dated 2018)

Target: T1, PPARγ2 and HDAC3 (Homo sapiens, UniProt P37231)
T1 construct: expressed in transfected cells; host or cells: 293T cells
T1 sequence (P37231 1-505): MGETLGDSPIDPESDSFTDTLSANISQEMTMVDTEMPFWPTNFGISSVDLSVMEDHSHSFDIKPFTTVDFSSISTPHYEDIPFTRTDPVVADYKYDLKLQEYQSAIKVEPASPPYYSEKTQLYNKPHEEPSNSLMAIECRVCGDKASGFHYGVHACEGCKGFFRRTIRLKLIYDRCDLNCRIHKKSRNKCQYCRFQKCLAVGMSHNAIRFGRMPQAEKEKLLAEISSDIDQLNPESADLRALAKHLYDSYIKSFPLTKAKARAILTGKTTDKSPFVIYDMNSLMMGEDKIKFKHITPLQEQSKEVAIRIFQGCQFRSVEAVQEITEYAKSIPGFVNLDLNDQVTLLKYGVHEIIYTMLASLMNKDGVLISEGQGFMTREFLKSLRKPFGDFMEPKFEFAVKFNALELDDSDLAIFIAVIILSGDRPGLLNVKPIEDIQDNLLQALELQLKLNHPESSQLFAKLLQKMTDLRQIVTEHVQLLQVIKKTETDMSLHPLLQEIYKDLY
Test: GST pull-down of GST-HDAC3, Myc-PPARγ2 and Flag-sLZIP in 293T cells
Format: binding
Details: in the presence of ligand (10 nM RZD)
Procedure: Therefore, in order to understand a regulation mechanism of sLZIP in the PPARγ2 transcriptional activity by binding to the FABP4 promoter region, an effect of sLZIP on the interaction between PPARγ2 and HDAC3 was examined. For this purpose, 293T cells were transfected with GST-HDAC3, Myc-PPARγ2 and Flag-sLZIP, and were treated or not treated with 10 nM of RZD for 24 hours. Cell lysates were subjected to GST pull-down analysis using a glutathione 4B bead, and a protein complex was analyzed in SDS-PAGE, and then immunoblotted with anti-GST, anti-Myc and anti-Flag antibodies (FIG. 6A). GST-HDAC3, GST-PPARγ2, Myc-PPARγ2, Flag-sLZIP and Ha-UB were expressed in the 293T cells, and the cells were treated with 10 nM of RZD for 24 hours. Cell lysates were subjected to GST pull-down analysis (FIG. 6B). GST-PPARγ2 and Flag-sLZIP were expressed in the 293T cells and treated with 10 nM of RZD for 24 hours. Cell lysates were subjected to GST pull-down analysis, and a protein complex was analyzed in SDS-PAGE, and then immunoblotted with anti-PGC1α, anti-GST and anti-Flag antibodies (FIG. 6C).

B1: sLZIP: human small leucine-zipper protein, isoform of LZIP, 354 amino acids, no transmembrane domain; GenBank FJ263669, SEQ ID NO: 1 (protein, listed as Homo sapiens)
chain: MELELDAGDQDLLAFLLEESGDLGTAPDEAVRAPLDWALPLSEVPSDWEVDDLLCSLLSPPASLNILSSSNPCLVHHDHTYSLPRETVSMDLESESCRKEGTQMTPQHMEELAEQEIARLVLTDEEKSLLEKEGLILPETLPLTKTEEQILKRVRRKIRNKRSAQESRRKKKVYVGGLESRVLKYTAQNMELQNKVQLLEEQNLSLLDQLRKLQAMVIEISNKTSSSSMYSSDTRGSLPAEHGVLSRQLRALPSEDPYQLELPALQSEVPKDSTHQWLDGSDCVLQAPGNTSCLLHYMPQAPSAEPPLEWPFPDLFSEPLCRGPILPLQANLTRKGGWLPTGSPSVILQDRYSG
  effect on interaction between PPARγ2 and HDAC3 (GST pull-down): enhanced interaction between PPARγ2 and HDAC3
